Patent publication US20150266925A1 (COMPLIX, published 2015)
Substitutions are numbered along the chain they refer to.

T1: human IL-23 (human, UniProt Q9NPF7 20-189; P29460 23-328)
T1 construct: Bought recombinant heterodimeric cytokine (eBioscience 34-8239-85 for panning; R&D Systems for the splenocyte assay); also called hIL-23; hIL23
T1 sequence (looked up) 1: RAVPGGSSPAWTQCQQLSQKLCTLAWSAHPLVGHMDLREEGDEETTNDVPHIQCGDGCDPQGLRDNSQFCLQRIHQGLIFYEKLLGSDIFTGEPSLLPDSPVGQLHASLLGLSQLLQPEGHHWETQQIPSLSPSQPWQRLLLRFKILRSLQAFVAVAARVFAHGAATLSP
T1 sequence (looked up) 2: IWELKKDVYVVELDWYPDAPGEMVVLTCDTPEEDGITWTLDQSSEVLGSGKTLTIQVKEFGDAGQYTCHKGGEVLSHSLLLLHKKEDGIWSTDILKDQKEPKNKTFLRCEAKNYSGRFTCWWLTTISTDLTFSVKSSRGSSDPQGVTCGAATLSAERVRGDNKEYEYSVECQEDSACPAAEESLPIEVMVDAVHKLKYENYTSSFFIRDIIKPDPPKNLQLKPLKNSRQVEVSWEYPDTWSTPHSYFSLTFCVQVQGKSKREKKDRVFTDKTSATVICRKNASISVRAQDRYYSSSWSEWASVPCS

B1: MA5 (designed binder)
chain: MSIKQIQKEIAQIQEVIAAIQKWIYRMTGGSGGSGGMSIEEIQKQIAAIQCQIAAIQKQIYAMTGSGGGGSGGSGGGGSGMSIEEIQKQIAAIQDQIVAIYKQIMAMSS
B2: MA12 (designed binder)
chain: MSIQEIQKEIAQIQAVIAGIQKYIYTMTGGSGGSGGGGSGGSGGMSIEEIQKQIAAIQCQIAAIQKQIYAMTGSGGGGSGGSGGGGSGMSIEEIQKQIAAIQEQILAIYKQIMAMVT
notes: also called MAl2
B3: Cl59m (designed binder)
chain: MSIQQIQKEIAQIQEVIAGIQKWIYMMTGGSGGGSGGGSGGGSGMSIEEIQKQIAAIQKQIAAIQKQIYAMTGGSGGGSGGGSGGGSGMSIEEIQKQITAIKEQIIAIYKQIMAMTP
notes: Rationally designed (in silico matured) variant of Cl59; also called C159m
B4: MB23-PEG (designed binder)
chain: MSIEQIQKEITTIQEVIAAIQKYIYTMTGGSGGSGGMSIEEIQKQIAAIQCQIAAIQKQIYAMTGSGGGGSGMSIEEIQKQIAAIQEQIVAIYKQIMAMAS
modifications: 40 kDa activated maleimide PEG conjugated to the single free thiol group (Cys) of MB23
B5: MB9 (designed binder)
chain: B1 chain with K4Q, A11T, Q12N, R26T, D95N, V98L, S108G
B6: MB43 (designed binder)
chain: B1 chain with K4E, Q5E, A11K, Q12N, W23Y, R26T, Q87P, V98I, S108T, S109R
B7: MB67 (designed binder)
chain: B1 chain with K4Q, Q5K, A11T, Q12N, W23Y, R26T, D95R, V98L, S109T
B8: MB23 (designed binder)
chain: B4 chain
notes: 3 for clone 59 (conflict); also called non-PEGylated MB23 Alphabody
B9: MA14 (designed binder)
chain: B4 chain with K8T, T11A, T12S, A19G, T26S, E87N, A100G, S101G
B10: MA23 (designed binder)
chain: B4 chain with E4Q, T11A, T12N, Y23W, T26L, A100P
B11: MB38 (designed binder)
chain: B4 chain with E4Q, Q5E, T11K, T12Q, A19G, T26G, E87N, V90L, A100P, S101Q
B12: MB76 (designed binder)
chain: B4 chain with E4Q, T12Q, T26R, G35D, E87G, V90L, A100S, S101L
B13: MB64 (designed binder)
chain: MSIQQIQKEITQIQAVIAGIQKYIYRMTGGSGGSGGGGSGGSGGMSIEEIQKQIAAIQCQIAAIQKQIYAMTGSGGGGSGMSIEEIQKQIAAIQGQIVAIYKQIMAMAT
B14: MA9 (designed binder)
chain: B13 chain with Q12T, G19A, Y23W, R26T, V98I, A108K, T109D
B15: MB74 (designed binder)
chain: B13 chain with T11A, Q12T, A15E, V98L, T109I
B16: MA15 (designed binder)
chain: B13 chain with Q5E, T11A, Q12N, R26T, A91T, G95A, V98I, A108P, T109R
B17: MAcons (designed binder)
single chain Alphabody: B13 chain with T11A, A15E, G19A, Y23W, R26S, G95D, A108S, T109G
notes: also called polypeptide 15
B18: 59m_C2eQ (designed binder)
single chain Alphabody: B2 chain with E5Q, A15E, Y23W, T26M, A99T, L106I, V116T, T117P
notes: also called design variant; polypeptide 19
B19: 59m_A3cA_A4cS_C2eQ (designed binder)
single chain Alphabody: B2 chain with E5Q, A15E, G19A, Y23W, T26S, A99T, L106I, V116T, T117P
notes: also called design variant; polypeptide 20
B20: Cl59 (designed binder)
chain: MSIEEIQKQIASIQEVIAGIQKWIYMMTGGSGGSGGMSIEEIQKQIAAIQKQIAAIQKQIYAMTGGSGGGGSGMSIEEIQKQITAIKEQIIAIYKQIMAMTP
notes: Non-matured Alphabody from the AC11 library, tested as soluble recombinant protein; also called Clone 59; C159

molecular target: T1, human IL-23; experiment: standard equilibrium ELISA

Row | Binder | factor better than the non-matured variant C159 [fold]
1 | B1 | 38
2 | B2 | 38

molecular target: T1, human IL-23; experiment: ELISA

Row | Binder | Kd [pM]
3 | B3 | 300

molecular target: T1, human IL-23; experiment: cell-based or functional assay

Row | Binder | IC50 (read off the curve), inhibition of Stat3 phosphorylation in DB cells by MB23-PEG pre-incubated with 35 pM hIL23 [nM]
4 | B4 | ~1

molecular target: T1, human IL-23; experiment: equilibrium ELISA, soluble polypeptide

Row | Binder | Kd [pM]
5 | B5 | 270
6 | B6 | 200
7 | B7 | 250
8 | B1 | 100
9 | B8 | 170
10 | B9 | 1800
11 | B10 | 290
12 | B11 | 200
13 | B12 | 1830
14 | B13 | 210
15 | B14 | 170
16 | B15 | 350
17 | B16 | 310
18 | B17 | 230
19 | B18 | 930
20 | B2 | 110
21 | B19 | 390

molecular target: T1, human IL-23; experiment: cell-based or functional assay; remark: another data set of the same source

Row | Binder | functional KD (DB fKD), DB cell assay: Stat3 phosphorylation induced by human IL-23; n data = 2 [pM] | functional KD (Spleno fKD), mouse splenocyte assay: IL-17 production induced by human IL-23; n data = 3 [pM] | functional KD (Spleno fKD), mouse splenocyte assay: IL-17 production induced by human IL-23; n data = 1 [pM] | functional KD (Spleno fKD), mouse splenocyte assay: IL-17 production induced by human IL-23; n data = 5 [pM]
22 | B5 | 700 | – | – | –
23 | B1 | 450 | 1150 | – | –
24 | B8 | 160 | – | – | –
25 | B9 | – | – | 11000 | –
26 | B10 | – | – | 10000 | –
27 | B11 | – | 1010 | – | –
28 | B12 | – | – | 1700 | –
29 | B20 | – | 68800 | – | –
30 | B13 | 460 | – | – | 180
31 | B14 | 240 | 460 | – | –
32 | B15 | – | – | 900 | –
33 | B16 | 290 | 480 | – | –
34 | B17 | – | – | 4100 | –
35 | B18 | – | – | 1900 | –
36 | B3 | 1730 | – | – | 21700
37 | B2 | 350 | – | – | 130
38 | B19 | – | – | 700 | –

molecular target: T1, human IL-23; experiment: kinetic ELISA, soluble polypeptide; kinetic ELISA

Row | Binder | Kd [pM]
39 | B20 | 7000

molecular target: T1, human IL-23; experiment: kinetic ELISA, soluble polypeptide

Row | Binder | Kd [pM] | koff [s⁻¹] | kon [M⁻¹ s⁻¹]
40 | B5 | 130 | 0.00025 | 1.9e+06
41 | B6 | 110 | 0.00014 | 1.3e+06
42 | B7 | 140 | 0.00022 | 1.6e+06
43 | B1 | 30 | 0.00016 | 4.5e+06
44 | B8 | 150 | 0.00021 | 1.5e+06
45 | B9 | 2500 | 0.0005 | 200000
46 | B10 | 700 | 0.00032 | 450000
47 | B11 | 210 | 0.00022 | 1e+06
48 | B12 | 2300 | 0.00056 | 250000
49 | B20 | – | 0.0007 | 100000
50 | B13 | 300 | 0.00033 | 1.1e+06
51 | B14 | 250 | 0.00035 | 1.4e+06
52 | B15 | 250 | 0.00016 | 650000
53 | B16 | 90 | 7.2e-05 | 800000
54 | B17 | 130 | 0.00032 | 2.5e+06
55 | B18 | 3900 | 0.00043 | 110000
56 | B2 | 260 | 0.00021 | 810000
57 | B19 | 750 | 0.00026 | 350000

molecular target: T1, human IL-23; experiment: equilibrium ELISA, soluble polypeptide; equilibrium ELISA

Row | Binder | Kd [pM]
58 | B20 | 3800

molecular target: T1, human IL-23; experiment: phage-coated ELISA, clone displayed on phage

Row | Binder | Kd [pM]
59 | B5 | 200
60 | B6 | 180
61 | B7 | 210
62 | B1 | 200
63 | B8 | 70
64 | B9 | 1500
65 | B10 | 700
66 | B11 | 180
67 | B12 | 160
68 | B20 | 3000
69 | B13 | 90
70 | B14 | 200
71 | B15 | 470
72 | B16 | 120
73 | B2 | 80

molecular target: T1, human IL-23; experiment: standard equilibrium ELISA, soluble polypeptide; MA12

Row | Binder | Kd [pM]
74 | B2 | 100
